{"source": "patent US20170114420", "test_in_all_cases": "ELONA", "key": {"[1]": {"test_system": "Norovirus GII.4 (Houston) VLP, capsid protein VP1 (Norovirus GII.4 Houston)", "conditions": "1 uM aptamer, RT"}, "[2]": {"test_system": "Norovirus GI.6 VLP, capsid protein VP1 (Norovirus GI.6)", "conditions": "1 uM aptamer, RT"}, "[3]": {"test_system": "Norovirus GII.4 (Grimsby) VLP, capsid protein VP1 (Norovirus GII.4 Grimsby)", "conditions": "1 uM aptamer, RT"}, "[4]": {"test_system": "Norovirus GI.4 VLP, capsid protein VP1 (Norovirus GI.4)", "conditions": "1 uM aptamer, RT"}, "[5]": {"test_system": "Norovirus GII.3 VLP, capsid protein VP1 (Norovirus GII.3)", "conditions": "1 uM aptamer, RT"}, "[6]": {"test_system": "Norovirus GII.6 VLP, capsid protein VP1 (Norovirus GII.6)", "conditions": "1 uM aptamer, RT"}, "[7]": {"test_system": "Norovirus GI.8 VLP, capsid protein VP1 (Norovirus GI.8)", "conditions": "1 uM aptamer, RT"}, "[8]": {"test_system": "Norovirus GII.12 VLP, capsid protein VP1 (Norovirus GII.12)", "conditions": "1 uM aptamer, RT"}, "[9]": {"test_system": "Norovirus GI.7 VLP, capsid protein VP1 (Norovirus GI.7)", "conditions": "1 uM aptamer, RT"}, "[10]": {"test_system": "Norovirus GII.7 VLP, capsid protein VP1 (Norovirus GII.7)", "conditions": "1 uM aptamer, RT"}, "[11]": {"test_system": "Norovirus GII.17 VLP, capsid protein VP1 (Norovirus GII.17)", "conditions": "1 uM aptamer, RT"}, "[12]": {"test_system": "Norovirus GII.1 VLP, capsid protein VP1 (Norovirus GII.1)", "conditions": "1 uM aptamer, RT"}, "[13]": {"test_system": "Norovirus GII.4 (Sydney) VLP, heat-denatured (80 C, 5 min) (Norovirus GII.4 Sydney)", "conditions": "VLP denatured 80 C 5 min"}}, "data": [{"sequence": "AGTATACGTATTACCTGCAGCTGACCGAGTGTCTGGTCATTTTCGATGTCTGTTGTTAGGCCGATATCTCGGAGATCTTGC [SMV-26]", "values": [{"measurement": "binding signal", "setting": "[1]", "result": 2.8, "unit": "T/N ratio"}, {"measurement": "binding signal", "setting": "[2]", "result": 1.5, "unit": "T/N ratio"}, {"measurement": "binding signal", "setting": "[3]", "result": 3.2, "unit": "T/N ratio"}, {"measurement": "binding signal", "setting": "[4]", "result": 1.1, "unit": "T/N ratio"}, {"measurement": "binding signal", "setting": "[5]", "result": 2.4, "unit": "T/N ratio"}, {"measurement": "binding signal", "setting": "[6]", "result": 2.8, "unit": "T/N ratio"}, {"measurement": "binding signal", "setting": "[7]", "result": 1.2, "unit": "T/N ratio"}, {"measurement": "binding signal", "setting": "[8]", "result": 2.4, "unit": "T/N ratio"}, {"measurement": "binding signal", "setting": "[9]", "result": 1.8, "unit": "T/N ratio"}, {"measurement": "binding signal", "setting": "[10]", "result": 2.8, "unit": "T/N ratio"}, {"measurement": "binding signal", "setting": "[11]", "result": 1.3, "unit": "T/N ratio"}, {"measurement": "binding signal", "setting": "[12]", "result": 2.1, "unit": "T/N ratio"}]}, {"sequence": "AGTATACGTATTACCTGCAGCCACCAGTGTGTTGAGGTTTGAGCACACTGATAGAGTGTCACGATATCTCGGAGATCTTGC [SMV-19]", "values": [{"measurement": "binding signal", "setting": "[1]", "result": 12.5, "unit": "T/N ratio"}, {"measurement": "binding signal", "setting": "[2]", "result": 3.7, "unit": "T/N ratio"}, {"measurement": "binding signal", "setting": "[3]", "result": 9.6, "unit": "T/N ratio"}, {"measurement": "binding signal", "setting": "[4]", "result": 1.7, "unit": "T/N ratio"}, {"measurement": "binding signal", "setting": "[5]", "result": 1.7, "unit": "T/N ratio"}, {"measurement": "binding signal", "setting": "[6]", "result": 1.8, "unit": "T/N ratio"}, {"measurement": "binding signal", "setting": "[7]", "result": 1.7, "unit": "T/N ratio"}, {"measurement": "binding signal", "setting": "[8]", "result": 1.5, "unit": "T/N ratio"}, {"measurement": "binding signal", "setting": "[9]", "result": 10.3, "unit": "T/N ratio"}, {"measurement": "binding signal", "setting": "[10]", "result": 4, "unit": "T/N ratio"}, {"measurement": "binding signal", "setting": "[11]", "result": 3, "unit": "T/N ratio"}, {"measurement": "binding signal", "setting": "[12]", "result": 7.1, "unit": "T/N ratio"}]}, {"sequence": "AGTATACGTATTACCTGCAGCCCATGTTTTGTAGGTGTAATAGGTCATGTTAGGGTTTCTGCGATATCTCGGAGATCTTGC [SMV-21]", "values": [{"measurement": "binding signal", "setting": "[1]", "result": 11.3, "unit": "T/N ratio"}, {"measurement": "binding signal", "setting": "[2]", "result": 3.8, "unit": "T/N ratio"}, {"measurement": "binding signal", "setting": "[3]", "result": 6.4, "unit": "T/N ratio"}, {"measurement": "binding signal", "setting": "[4]", "result": 4.3, "unit": "T/N ratio"}, {"measurement": "binding signal", "setting": "[5]", "result": 11.8, "unit": "T/N ratio"}, {"measurement": "binding signal", "setting": "[6]", "result": 3, "unit": "T/N ratio"}, {"measurement": "binding signal", "setting": "[7]", "result": 4.6, "unit": "T/N ratio"}, {"measurement": "binding signal", "setting": "[8]", "result": 6.6, "unit": "T/N ratio"}, {"measurement": "binding signal", "setting": "[9]", "result": 8.1, "unit": "T/N ratio"}, {"measurement": "binding signal", "setting": "[10]", "result": 13.5, "unit": "T/N ratio"}, {"measurement": "binding signal", "setting": "[11]", "result": 12.2, "unit": "T/N ratio"}, {"measurement": "binding signal", "setting": "[12]", "result": 8.6, "unit": "T/N ratio"}]}, {"sequence": "AGTATACGTATTACCTGCAGCTGTTTATGGGGATAAACGTATCTAATTCGTGTACTAATCACGATATCTCGGAGATCTTGC [M1]", "values": [{"measurement": "binding signal (VLP/no VLP ratio)", "setting": "[1]", "result": 10.4}, {"measurement": "binding signal (VLP/no VLP ratio)", "setting": "[2]", "result": 1.98}, {"measurement": "binding signal (VLP/no VLP ratio)", "setting": "[3]", "result": 7.59}, {"measurement": "binding signal (VLP/no VLP ratio)", "setting": "[4]", "result": 3.17}, {"measurement": "binding signal (VLP/no VLP ratio)", "setting": "[5]", "result": 2.94}, {"measurement": "binding signal (VLP/no VLP ratio)", "setting": "[6]", "result": 2.38}, {"measurement": "binding signal (VLP/no VLP ratio)", "setting": "[7]", "result": 2.61}, {"measurement": "binding signal (VLP/no VLP ratio)", "setting": "[8]", "result": 4.47}, {"measurement": "binding signal (VLP/no VLP ratio)", "setting": "[9]", "result": 7.32}, {"measurement": "binding signal (VLP/no VLP ratio)", "setting": "[10]", "result": 7.47}, {"measurement": "binding signal (VLP/no VLP ratio)", "setting": "[11]", "result": 3.94}, {"measurement": "binding signal (VLP/no VLP ratio)", "setting": "[12]", "result": 3.59}]}, {"sequence": "AGTATACGTATTACCTGCAGCCATCTGTGTGAAGACTATATGGCGCTCACATATTTCTTTCCGATATCTCGGAGATCTTGC [SMV-25]", "values": [{"measurement": "binding signal", "setting": "[1]", "result": 11, "unit": "T/N ratio"}, {"measurement": "binding signal", "setting": "[2]", "result": 2.4, "unit": "T/N ratio"}, {"measurement": "binding signal", "setting": "[3]", "result": 10.4, "unit": "T/N ratio"}, {"measurement": "binding signal", "setting": "[4]", "result": 5.6, "unit": "T/N ratio"}, {"measurement": "binding signal", "setting": "[5]", "result": 5.4, "unit": "T/N ratio"}, {"measurement": "binding signal", "setting": "[6]", "result": 7.3, "unit": "T/N ratio"}, {"measurement": "binding signal", "setting": "[7]", "result": 6.2, "unit": "T/N ratio"}, {"measurement": "binding signal", "setting": "[8]", "result": 1.9, "unit": "T/N ratio"}, {"measurement": "binding signal", "setting": "[9]", "result": 3.5, "unit": "T/N ratio"}, {"measurement": "binding signal", "setting": "[10]", "result": 9.1, "unit": "T/N ratio"}, {"measurement": "binding signal", "setting": "[11]", "result": 2, "unit": "T/N ratio"}, {"measurement": "binding signal", "setting": "[12]", "result": 9.4, "unit": "T/N ratio"}]}, {"sequence": "AGTATACGTATTACCTGCAGCTGGGAAGAGGTCCGGTAAATGCAGGGTCAGCCCGGAGAGCGATATCTCGGAGATCTTGC [M6-2]", "values": [{"measurement": "binding signal (VLP/no VLP ratio)", "setting": "[1]", "result": 13}, {"measurement": "binding signal (VLP/no VLP ratio)", "setting": "[2]", "result": 2.75}, {"measurement": "binding signal (VLP/no VLP ratio)", "setting": "[3]", "result": 11.5}, {"measurement": "binding signal (% of untreated VLP signal)", "setting": "[13]", "result": 1.98}, {"measurement": "binding signal (VLP/no VLP ratio)", "setting": "[4]", "result": 3.36}, {"measurement": "binding signal (VLP/no VLP ratio)", "setting": "[5]", "result": 3.16}, {"measurement": "binding signal (VLP/no VLP ratio)", "setting": "[6]", "result": 4.4}, {"measurement": "binding signal (VLP/no VLP ratio)", "setting": "[7]", "result": 4.55}, {"measurement": "binding signal (VLP/no VLP ratio)", "setting": "[8]", "result": 5.55}, {"measurement": "binding signal (VLP/no VLP ratio)", "setting": "[9]", "result": 7.56}, {"measurement": "binding signal (VLP/no VLP ratio)", "setting": "[10]", "result": 8.02}, {"measurement": "binding signal (VLP/no VLP ratio)", "setting": "[11]", "result": 5.24}, {"measurement": "binding signal (VLP/no VLP ratio)", "setting": "[12]", "result": 4.52}]}]}
